The values that follow come from US20250367130A1, “THERMORESPONSIVE HYDROGEL CONTAINING METAL-ORGANIC FRAMEWORK PARTICLES FOR NONINVASIVE OCULAR DRUG DELIVERY” (University of Pittsburgh - Of the Commonwealth System of …, priority 2024, published 2025).

The data set in a line: Biodistribution study of ovalbumin in rabbit eye tissues and plasma, quantified with ELISA. In kind it is in vivo, New Zealand white rabbits. Here is the method:
Biodistribution studies involved healthy New Zealand white rabbits (n=5). The right eye of the rabbits was given a 100 μL of gel with the MOF and PLGA MP particles, independently, and a 50 μL injection of 10 mg/mL ovalbumin solution, for comparative purposes. The left eye was the experimental control. At 1 and 3 days, rabbits were sacrificed, and both eyes were removed. Aqueous humor, vitreous humor, retina-choroid and plasma were collected, and time-dependent concentrations were quantified with ELISA.
After one administration of the topical delivery system, ovalbumin is detectable in the aqueous humor, vitreous humor, retina-choroid, and plasma. […] However, these concentrations are 10^5 lower than what is seen with intravitreal injections after 3 days.
For orientation: An ELISA detects its analyte on a solid surface through an enzyme-linked reagent.

Where [1] appears, read: after one administration of the topical delivery system, rabbit.

B1: ovalbumin (protein, UniProt P01012 2-386, looked up)
Ovalbumin: GSIGAASMEFCFDVFKELKVHHANENIFYCPIAIMSALAMVYLGAKDSTRTQINKVVRFDKLPGFGDSIEAQCGTSVNVHSSLRDILNQITKPNDVYSFSLASRLYAEERYPILPEYLQCVKELYRGGLEPINFQTAADQARELINSWVESQTNGIIRNVLQPSSVDSQTAMVLVNAIVFKGLWEKAFKDEDTQAMPFRVTEQESKPVQMMYQIGLFRVASMASEKMKILELPFASGTMSMLVLLPDEVSGLEQLESIINFEKLTEWTSSNVMEERKIKVYLPRMKMEEKYNLTSVLMAMGITDVFSSSANLSGISSAESLKISQAVHAAHAEINEAGREVVGSAEAGVDAASVSEEFRADHPFLFCIKHIATNAVLFFGRCVSP
notes: test agent, acting as a surrogate agent for other anti-VEGF proteins
Regarding B1, where the note is “after one administration of the topical delivery system (100 μL gel with particles), rabbit”, the “ovalbumin detection in aqueous humor” value is on record as “detectable”. Under setting [1], the “ovalbumin concentration in retina-choroid relative to vitreous humor” value is listed as 9 ×, the “ovalbumin concentration in the vitreous humor” value was about 1 ng/mL, the “ovalbumin detection in plasma” value was “detectable” and the “ovalbumin detection in retina-choroid” value was “detectable”. Moreover, the “ovalbumin detection in vitreous humor” value under setting [1] is reported as “detectable”. For the same molecule, the “factor by which concentrations are lower than with intravitreal injections” value (topical delivery system vs intravitreal injection, after 3 days) was 10^5.
